Experimental data published in patent US20210388087A1 (Chugai, published 2021).

T1: Human CD3eg linker (human)
T1 construct: Single-chain construct; also called recombinant human CD3
T1 chain: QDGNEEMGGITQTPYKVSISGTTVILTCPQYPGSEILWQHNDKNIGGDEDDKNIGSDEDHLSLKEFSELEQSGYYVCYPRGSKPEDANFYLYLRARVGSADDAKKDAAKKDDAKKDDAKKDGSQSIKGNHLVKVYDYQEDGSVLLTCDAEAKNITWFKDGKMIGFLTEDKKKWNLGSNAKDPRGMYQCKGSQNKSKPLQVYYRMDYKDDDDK


Target: T1, Human CD3eg linker
Test: SPR; fold vs parent H183/L072

Binder | fold change of affinity
H183/L072 VL S93N (antibody, name in Kabat numbering, V domains shown) VH: QVQLVESGGGLVQPGRSLRLSCAASGFTFSNAWMHWVRQAPGKGLEWVAQIKDKGNAYAAYYAPSVKGRFTISRDDSKNSIYLQMNSLKTEDTAVYYCHYVHYASASTVLPAFGVDAWGQGTTVTVSS VL: DIVMTQSPLSLPVTPGEPASISCQASQELVHMNRNTYLHWYQQKPGQAPRLLIYKVSNRFPGVPDRFSGSGSGTDFTLKISRVEAEDVGVYYCAQGTNVPFTFGQGTKLEIK | 0.8 fold
H183/L072 VL T31N (antibody, name in Kabat numbering, V domains shown) VH: QVQLVESGGGLVQPGRSLRLSCAASGFTFSNAWMHWVRQAPGKGLEWVAQIKDKGNAYAAYYAPSVKGRFTISRDDSKNSIYLQMNSLKTEDTAVYYCHYVHYASASTVLPAFGVDAWGQGTTVTVSS VL: DIVMTQSPLSLPVTPGEPASISCQASQELVHMNRNNYLHWYQQKPGQAPRLLIYKVSNRFPGVPDRFSGSGSGTDFTLKISRVEAEDVGVYYCAQGTSVPFTFGQGTKLEIK | 0 fold
H183/L072 VL S93R (antibody, name in Kabat numbering, V domains shown) VH: QVQLVESGGGLVQPGRSLRLSCAASGFTFSNAWMHWVRQAPGKGLEWVAQIKDKGNAYAAYYAPSVKGRFTISRDDSKNSIYLQMNSLKTEDTAVYYCHYVHYASASTVLPAFGVDAWGQGTTVTVSS VL: DIVMTQSPLSLPVTPGEPASISCQASQELVHMNRNTYLHWYQQKPGQAPRLLIYKVSNRFPGVPDRFSGSGSGTDFTLKISRVEAEDVGVYYCAQGTRVPFTFGQGTKLEIK | 1 fold
H183/L072 VL T31L (antibody, name in Kabat numbering, V domains shown) VH: QVQLVESGGGLVQPGRSLRLSCAASGFTFSNAWMHWVRQAPGKGLEWVAQIKDKGNAYAAYYAPSVKGRFTISRDDSKNSIYLQMNSLKTEDTAVYYCHYVHYASASTVLPAFGVDAWGQGTTVTVSS VL: DIVMTQSPLSLPVTPGEPASISCQASQELVHMNRNLYLHWYQQKPGQAPRLLIYKVSNRFPGVPDRFSGSGSGTDFTLKISRVEAEDVGVYYCAQGTSVPFTFGQGTKLEIK | 0 fold
H183/L072 VL T31G (antibody, name in Kabat numbering, V domains shown) VH: QVQLVESGGGLVQPGRSLRLSCAASGFTFSNAWMHWVRQAPGKGLEWVAQIKDKGNAYAAYYAPSVKGRFTISRDDSKNSIYLQMNSLKTEDTAVYYCHYVHYASASTVLPAFGVDAWGQGTTVTVSS VL: DIVMTQSPLSLPVTPGEPASISCQASQELVHMNRNGYLHWYQQKPGQAPRLLIYKVSNRFPGVPDRFSGSGSGTDFTLKISRVEAEDVGVYYCAQGTSVPFTFGQGTKLEIK | 0 fold
H183/L072 VL T31D (antibody, name in Kabat numbering, V domains shown) VH: QVQLVESGGGLVQPGRSLRLSCAASGFTFSNAWMHWVRQAPGKGLEWVAQIKDKGNAYAAYYAPSVKGRFTISRDDSKNSIYLQMNSLKTEDTAVYYCHYVHYASASTVLPAFGVDAWGQGTTVTVSS VL: DIVMTQSPLSLPVTPGEPASISCQASQELVHMNRNDYLHWYQQKPGQAPRLLIYKVSNRFPGVPDRFSGSGSGTDFTLKISRVEAEDVGVYYCAQGTSVPFTFGQGTKLEIK | 0 fold
H183/L072 VL T31E (antibody, name in Kabat numbering, V domains shown) VH: QVQLVESGGGLVQPGRSLRLSCAASGFTFSNAWMHWVRQAPGKGLEWVAQIKDKGNAYAAYYAPSVKGRFTISRDDSKNSIYLQMNSLKTEDTAVYYCHYVHYASASTVLPAFGVDAWGQGTTVTVSS VL: DIVMTQSPLSLPVTPGEPASISCQASQELVHMNRNEYLHWYQQKPGQAPRLLIYKVSNRFPGVPDRFSGSGSGTDFTLKISRVEAEDVGVYYCAQGTSVPFTFGQGTKLEIK | 0.4 fold
H183/L072 VL T31R (antibody, name in Kabat numbering, V domains shown) VH: QVQLVESGGGLVQPGRSLRLSCAASGFTFSNAWMHWVRQAPGKGLEWVAQIKDKGNAYAAYYAPSVKGRFTISRDDSKNSIYLQMNSLKTEDTAVYYCHYVHYASASTVLPAFGVDAWGQGTTVTVSS VL: DIVMTQSPLSLPVTPGEPASISCQASQELVHMNRNRYLHWYQQKPGQAPRLLIYKVSNRFPGVPDRFSGSGSGTDFTLKISRVEAEDVGVYYCAQGTSVPFTFGQGTKLEIK | 0.4 fold
H183/L072 VL S93T (antibody, name in Kabat numbering, V domains shown) VH: QVQLVESGGGLVQPGRSLRLSCAASGFTFSNAWMHWVRQAPGKGLEWVAQIKDKGNAYAAYYAPSVKGRFTISRDDSKNSIYLQMNSLKTEDTAVYYCHYVHYASASTVLPAFGVDAWGQGTTVTVSS VL: DIVMTQSPLSLPVTPGEPASISCQASQELVHMNRNTYLHWYQQKPGQAPRLLIYKVSNRFPGVPDRFSGSGSGTDFTLKISRVEAEDVGVYYCAQGTTVPFTFGQGTKLEIK | 1 fold

Further lines, results first:

fold change of affinity | Binder
0.1 fold | H183/L072 VL T31H (antibody, name in Kabat numbering, V domains shown) VH: QVQLVESGGGLVQPGRSLRLSCAASGFTFSNAWMHWVRQAPGKGLEWVAQIKDKGNAYAAYYAPSVKGRFTISRDDSKNSIYLQMNSLKTEDTAVYYCHYVHYASASTVLPAFGVDAWGQGTTVTVSS VL: DIVMTQSPLSLPVTPGEPASISCQASQELVHMNRNHYLHWYQQKPGQAPRLLIYKVSNRFPGVPDRFSGSGSGTDFTLKISRVEAEDVGVYYCAQGTSVPFTFGQGTKLEIK
0.4 fold | H183/L072 VL T31Q (antibody, name in Kabat numbering, V domains shown) VH: QVQLVESGGGLVQPGRSLRLSCAASGFTFSNAWMHWVRQAPGKGLEWVAQIKDKGNAYAAYYAPSVKGRFTISRDDSKNSIYLQMNSLKTEDTAVYYCHYVHYASASTVLPAFGVDAWGQGTTVTVSS VL: DIVMTQSPLSLPVTPGEPASISCQASQELVHMNRNQYLHWYQQKPGQAPRLLIYKVSNRFPGVPDRFSGSGSGTDFTLKISRVEAEDVGVYYCAQGTSVPFTFGQGTKLEIK
0.7 fold | H183/L072 VL T31I (antibody, name in Kabat numbering, V domains shown) VH: QVQLVESGGGLVQPGRSLRLSCAASGFTFSNAWMHWVRQAPGKGLEWVAQIKDKGNAYAAYYAPSVKGRFTISRDDSKNSIYLQMNSLKTEDTAVYYCHYVHYASASTVLPAFGVDAWGQGTTVTVSS VL: DIVMTQSPLSLPVTPGEPASISCQASQELVHMNRNIYLHWYQQKPGQAPRLLIYKVSNRFPGVPDRFSGSGSGTDFTLKISRVEAEDVGVYYCAQGTSVPFTFGQGTKLEIK
1.1 fold | H183/L072 VL S93W (antibody, name in Kabat numbering, V domains shown) VH: QVQLVESGGGLVQPGRSLRLSCAASGFTFSNAWMHWVRQAPGKGLEWVAQIKDKGNAYAAYYAPSVKGRFTISRDDSKNSIYLQMNSLKTEDTAVYYCHYVHYASASTVLPAFGVDAWGQGTTVTVSS VL: DIVMTQSPLSLPVTPGEPASISCQASQELVHMNRNTYLHWYQQKPGQAPRLLIYKVSNRFPGVPDRFSGSGSGTDFTLKISRVEAEDVGVYYCAQGTWVPFTFGQGTKLEIK
0.1 fold | H183/L072 VL T92A (antibody, name in Kabat numbering, V domains shown) VH: QVQLVESGGGLVQPGRSLRLSCAASGFTFSNAWMHWVRQAPGKGLEWVAQIKDKGNAYAAYYAPSVKGRFTISRDDSKNSIYLQMNSLKTEDTAVYYCHYVHYASASTVLPAFGVDAWGQGTTVTVSS VL: DIVMTQSPLSLPVTPGEPASISCQASQELVHMNRNTYLHWYQQKPGQAPRLLIYKVSNRFPGVPDRFSGSGSGTDFTLKISRVEAEDVGVYYCAQGASVPFTFGQGTKLEIK
0.4 fold | H183/L072 VL T31K (antibody, name in Kabat numbering, V domains shown) VH: QVQLVESGGGLVQPGRSLRLSCAASGFTFSNAWMHWVRQAPGKGLEWVAQIKDKGNAYAAYYAPSVKGRFTISRDDSKNSIYLQMNSLKTEDTAVYYCHYVHYASASTVLPAFGVDAWGQGTTVTVSS VL: DIVMTQSPLSLPVTPGEPASISCQASQELVHMNRNKYLHWYQQKPGQAPRLLIYKVSNRFPGVPDRFSGSGSGTDFTLKISRVEAEDVGVYYCAQGTSVPFTFGQGTKLEIK
0.7 fold | H183/L072 VL S93V (antibody, name in Kabat numbering, V domains shown) VH: QVQLVESGGGLVQPGRSLRLSCAASGFTFSNAWMHWVRQAPGKGLEWVAQIKDKGNAYAAYYAPSVKGRFTISRDDSKNSIYLQMNSLKTEDTAVYYCHYVHYASASTVLPAFGVDAWGQGTTVTVSS VL: DIVMTQSPLSLPVTPGEPASISCQASQELVHMNRNTYLHWYQQKPGQAPRLLIYKVSNRFPGVPDRFSGSGSGTDFTLKISRVEAEDVGVYYCAQGTVVPFTFGQGTKLEIK
1 fold | H183/L072 VL S93Q (antibody, name in Kabat numbering, V domains shown) VH: QVQLVESGGGLVQPGRSLRLSCAASGFTFSNAWMHWVRQAPGKGLEWVAQIKDKGNAYAAYYAPSVKGRFTISRDDSKNSIYLQMNSLKTEDTAVYYCHYVHYASASTVLPAFGVDAWGQGTTVTVSS VL: DIVMTQSPLSLPVTPGEPASISCQASQELVHMNRNTYLHWYQQKPGQAPRLLIYKVSNRFPGVPDRFSGSGSGTDFTLKISRVEAEDVGVYYCAQGTQVPFTFGQGTKLEIK
0.2 fold | H183/L072 VL T31A (antibody, name in Kabat numbering, V domains shown) VH: QVQLVESGGGLVQPGRSLRLSCAASGFTFSNAWMHWVRQAPGKGLEWVAQIKDKGNAYAAYYAPSVKGRFTISRDDSKNSIYLQMNSLKTEDTAVYYCHYVHYASASTVLPAFGVDAWGQGTTVTVSS VL: DIVMTQSPLSLPVTPGEPASISCQASQELVHMNRNAYLHWYQQKPGQAPRLLIYKVSNRFPGVPDRFSGSGSGTDFTLKISRVEAEDVGVYYCAQGTSVPFTFGQGTKLEIK
0.5 fold | H183/L072 VL T31S (antibody, name in Kabat numbering, V domains shown) VH: QVQLVESGGGLVQPGRSLRLSCAASGFTFSNAWMHWVRQAPGKGLEWVAQIKDKGNAYAAYYAPSVKGRFTISRDDSKNSIYLQMNSLKTEDTAVYYCHYVHYASASTVLPAFGVDAWGQGTTVTVSS VL: DIVMTQSPLSLPVTPGEPASISCQASQELVHMNRNSYLHWYQQKPGQAPRLLIYKVSNRFPGVPDRFSGSGSGTDFTLKISRVEAEDVGVYYCAQGTSVPFTFGQGTKLEIK
0.7 fold | H183/L072 VL T31V (antibody, name in Kabat numbering, V domains shown) VH: QVQLVESGGGLVQPGRSLRLSCAASGFTFSNAWMHWVRQAPGKGLEWVAQIKDKGNAYAAYYAPSVKGRFTISRDDSKNSIYLQMNSLKTEDTAVYYCHYVHYASASTVLPAFGVDAWGQGTTVTVSS VL: DIVMTQSPLSLPVTPGEPASISCQASQELVHMNRNVYLHWYQQKPGQAPRLLIYKVSNRFPGVPDRFSGSGSGTDFTLKISRVEAEDVGVYYCAQGTSVPFTFGQGTKLEIK
